# Laboratory results as given in patent publication US20250296992A1 (Genmab, published 2025).
# Positions count from the first letter of the chain named.
# B1: hu1H2-03 (antibody, V domains shown)
# VH: EVQLVESGGGLVQPGGSLRLSCAASGFTFSDYGLHWVRQAPGKGLEWVSYISSGSSTVYFADTLKGRFTISRDNAKNSLYLQMNSLRAEDTAVYYCTRGTWYFDVWGRGTLVTVSS
# VL: DIQMTQSPSSLSASVGDRVTITCRTSENIHSYLAWYQQKPGKSPQLLVYNAKTLADGVPSRFSGSGSGTDYTLTISSLQPEDFGTFYCQHFWTTSRTFGGGTKVEIK
# notes: see m20
# B2: hu14G1-03 (antibody, V domains shown)
# VH: EVQLVESGGGLVQPGGSLRLSCAASGFTFSDYGMHWVRQAPGKGLEWVSYISPGSSTIYYADTMKGRFTISRDNAKNSLYLQMNSLRAEDTAVYYCARAYGGSYWYFAVWGQGTLVTVSS
# VL: B1 VL with T25A, E27G, F86Y, T93S, S95P, R96Y, V104L
# B3: hu1H2-13 (antibody, V domains shown)
# VH: B1 VH with S49A
# VL: B1 VL
# B4: Sirtratumab-LD038 (8) (antibody, V domains shown)
# VH: QVQLVESGGGVVQPGRSLRLSCAASGFTFSSYGMHWVRQAPGKGLEWVAVIWYDGSNQYYADSVKGRFTISRDNSKNTLFLQMHSLRAEDTAVYYCARGLTSGRYGMDWGQGTTVTVSS
# VL: DIVMTQSPLSLPVTPGEPASISCRSSQSLLLSHGFNYLDWYLQKPGQSPQLLIYLGSSRASGVPDRFSGSGSGTDFTLKISRVEAEDVGLYYCMQPLQIPWTFGQGTKVEIK
# modifications: drug-linker LD038 on cysteines freed by TCEP reduction, DAR 8.0; positions not given
# notes: also called Sirtratumab ADC
# B5: hu1H2-03-LD038 (8) (antibody, V domains shown)
# VH: B1 VH
# VL: B1 VL
# modifications: drug-linker LD038 on cysteines freed by TCEP reduction, DAR 8.0; positions not given
# notes: also called hu1H2-03 ADC
# B6: hu14G1-03-LD038 (8) (antibody, V domains shown)
# VH: B2 VH
# VL: B1 VL with T25A, E27G, F86Y, T93S, S95P, R96Y, V104L
# modifications: drug-linker LD038 on cysteines freed by TCEP reduction, DAR 8.0; positions not given
# notes: also called hu14G1-03 ADC
# B7: hu1H2-13-LD038 (8) (antibody, V domains shown)
# VH: B1 VH with S49A
# VL: B1 VL
# modifications: drug-linker LD038 on cysteines freed by TCEP reduction, DAR 8.0; positions not given
# notes: also called hu1H2-13 ADC
# B8: phA108-LD038 (8) (antibody, V domains shown)
# VH: QVQLVQSGAEVKKPGASVKVSCTASGYIFNDYYLHWVRQAPGQGLEWVGIINPSGGSPVYAQKFQGRVTMTRDTSTNTVYMELSSLRSEDTAVYYCARGMVRGVRLFDYWGQGTLVTVSA
# VL: EIVLTQSPATLSLSPGERATLSCRASQSVSSYLAWYQQKPGQTPRLLIYDASNRATGVPARFSGSGSGTDFTLTISSLETEDFAVYYCQQRTNWPLTFGGGTKVEIK
# modifications: drug-linker LD038 on cysteines freed by TCEP reduction, DAR 8.0; positions not given
# notes: also called phA108 ADC
# B9: phA290-LD038 (8) (antibody, V domains shown)
# VH: QVQLVQSGAEVKKPGASVKVSCKASGYTFTSYYMHWVRQAPGQGLEWMGIINPSGGSTSYAQKFQGRVTMTRDTSTSTVYMELSSLRSEDTAVYYCARGFTRYFDYWGQGTLVTVSA
# VL: B8 VL with L4M, A9G, S31K, K39R, T43A, V58I, I75V, T80P, T92Y, K103T
# modifications: drug-linker LD038 on cysteines freed by TCEP reduction, DAR 8.0; positions not given
# notes: also called phA290 ADC
# B10: hu1H2-03-LD343 (8) (antibody, V domains shown)
# VH: B1 VH
# VL: B1 VL
# modifications: drug-linker LD343 on cysteines freed by TCEP reduction, DAR 8.0; positions not given
# Target: T1, human SLITRK6 extracellular domain linked to his tag (human, UniProt Q9H5Y7 27-608)
# T1 construct: extracellular domain; also called huSLITRK6; Hu SLITRK6; not shown: his tag
# Experiment: ELISA, coated antigen
# Description: First, a purified antigen was adsorbed to the surface of a PVC 96-well plate for ELISA at 4° C. overnight, the plate was washed twice by filling the wells with 350 μL TBST buffer (200 mM Sodium Chloride, 20 mM Tris, 0.05% Tween-20, pH 8). The surface of the solid phase having no antigen adsorbed thereto was covered with BSA. After washing the surface with TBST buffer, the surface was incubated with a serially diluted mAb as a primary antibody to bind to the antigen for 1 hour at room temperature. The plate was washed twice with TBST buffer and added an antibody labeled with an enzyme as a secondary antibody to incubate for 1 hour at room temperature.
row,Binder,EC50
1,B1,0.04 nM
2,B2,0.04 nM
3,B3,0.07 nM

# Target: T2, cynomolgus monkey SLITRK6 extracellular domain linked to his tag (cynomolgus monkey, UniProt G7PVK4 27-608)
# T2 construct: extracellular domain; also called cynoSLITRK6; Cyno SLITRK6; not shown: his tag
# Experiment: ELISA, coated antigen
row,Binder,EC50
1,B1,0.05 nM
2,B2,0.04 nM
3,B3,0.05 nM

# Target: T3, human SLITRK6 on cells (human, UniProt Q9H5Y7 27-841)
# Experiment: cell-based or functional assay
Binder,"IC50 (nM), cytotoxicity on 293F-SLITRK6-C9 cells (Cell Titer-Glo)","IC50 (nM), cytotoxicity on CHP-212 cells (Cell Titer-Glo)","IC50 (nM), cytotoxicity on RT4 cells (Cell Titer-Glo)"
B4,0.06 nM,5.56 nM,9.25 nM
B5,,0.83 nM,7.02 nM
B6,,0.91 nM,9.56 nM
B7,0.06 nM,0.93 nM,5.06 nM
B8,0.06 nM,2.82 nM,7.29 nM
B9,,1.22 nM,5.9 nM

# Target: T3, human SLITRK6 on cells
# Experiment: flow cytometry on RT4 cells
# Description: (§1) The binding activity of mAbs was evaluated by flow cytometer (Beckman, Cytoflex). Specifically, cells were incubated with 50 μL of mAbs or ADCs in series dilutions in PBS containing 1% BSA at 4° C. for 30 minutes. The cells were washed twice with PBS containing 1% BSA, stained with PE-conjugated anti human Fc in PBS containing 1% BSA and then incubated at 4° C. for 20 min. After that the cells were washed twice with PBS and analyzed by a flow cytometer.
row,Binder,EC50
1,B1,0.28 nM
2,B2,0.32 nM
3,B3,0.27 nM

# Target: T3, human SLITRK6 on cells
# Experiment: flow cytometry on RT4 cells
# Remark: another data set of the same source
# Description: (§2) The binding activity of mAbs and ADCs was evaluated by flow cytometer (Beckman, Cytoflex). Specifically, cells were incubated with 50 μL of mAbs or ADCs in series dilutions in PBS containing 1% BSA at 4° C. for 30 min. The cells were washed twice with PBS containing 1% BSA, stained with PE-conjugated anti human Fc in PBS containing 1% BSA and then incubated at 4° C. for 20 min. After that the cells were washed twice with PBS and analyzed by a flow cytometer.
row,Binder,EC50
1,B4,0.31 nM
2,B5,0.47 nM
3,B6,0.46 nM
4,B1,0.36 nM
5,B2,0.38 nM
6,B3,0.27 nM
7,B7,0.38 nM
8,B8,0.16 nM
9,B9,0.16 nM

# Target: T3, human SLITRK6 on cells
# Experiment: flow cytometry on SCC-4 cells
# Description: as §1
row,Binder,EC50
1,B1,0.27 nM
2,B2,0.44 nM
3,B3,0.23 nM

# Target: T3, human SLITRK6 on cells
# Experiment: flow cytometry on SW780 cells
# Description: as §1
row,Binder,EC50
1,B1,0.41 nM
2,B2,0.61 nM
3,B3,0.45 nM

# Target: T3, human SLITRK6 on cells
# Experiment: flow cytometry on SW780 cells
# Remark: another data set of the same source
# Description: as §2
row,Binder,EC50
1,B4,0.38 nM
2,B5,0.44 nM
3,B6,0.64 nM
4,B1,0.44 nM
5,B2,0.62 nM
6,B3,0.44 nM
7,B7,0.61 nM
8,B8,0.29 nM
9,B9,0.27 nM

# Target: T3, human SLITRK6 on cells
# Experiment: flow cytometry on CHP-212 cells
# Description: as §1
row,Binder,EC50
1,B1,0.22 nM
2,B2,0.33 nM
3,B3,0.22 nM

# Target: T3, human SLITRK6 on cells
# Experiment: flow cytometry on CHP-212 cells
# Remark: another data set of the same source
# Description: as §2
row,Binder,EC50
1,B4,0.49 nM
2,B5,0.4 nM
3,B6,0.65 nM
4,B1,0.24 nM
5,B2,0.37 nM
6,B3,0.22 nM
7,B7,0.5 nM
8,B8,0.14 nM
9,B9,0.13 nM

# Target: T3, human SLITRK6 on cells
# Experiment: flow cytometry on RT112/84 cells
# Description: as §1
row,Binder,EC50
1,B1,0.23 nM
2,B2,0.35 nM
3,B3,0.17 nM

# Target: T3, human SLITRK6 on cells
# Experiment: flow cytometry on 293F-SLITRK6-C9 cells
# Description: as §2
row,Binder,EC50
1,B4,1.32 nM
2,B5,1.35 nM
3,B6,1.79 nM
4,B1,1.33 nM
5,B2,1.77 nM
6,B3,1.32 nM
7,B7,1.6 nM
8,B8,1.09 nM
9,B9,0.79 nM

# Target: T3, human SLITRK6 on cells
# Experiment: flow cytometry on 293F-huSLITRK6-C9 cells
# Description: The binding activity of mAbs was evaluated by flow cytometer (Beckman, Cytoflex). Specifically, cells were incubated with 50 μL of mAbs or ADCs in series dilutions in PBS containing 1% BSA at 4° C. for 30 min. The cells were washed twice with PBS containing 1% BSA, stained with PE-conjugated anti human Fc in PBS containing 1% BSA and then incubated at 4° C. for 20 min. After that the cells were washed twice with PBS and analyzed by a flow cytometer.
row,Binder,EC50
1,B1,1.33 nM
2,B2,1.77 nM
3,B3,1.32 nM

# Target: T3, human SLITRK6 on cells
# Experiment: flow cytometry on RT4 cells, PE-conjugated anti-human Fc
# Description: as §2
row,Binder,EC50 (read off the curve)
1,B10,~0.4 nM

# Target: T3, human SLITRK6 on cells
# Experiment: flow cytometry on SW780 cells, PE-conjugated anti-human Fc
# Description: as §2
row,Binder,EC50 (read off the curve)
1,B10,~0.3 nM

# Target: T1, human SLITRK6 extracellular domain …
# Experiment: BLI; antigen ECD-his on anti-his tips, antibody as analyte; 1:1 fit;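 also: antibody at several concentrations, 180 s association then 300 s dissociation in Tris buffer at pH 6 or 7.5, rate constants from global fitting, KD computed as koff/kon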
# Description: (§3) Binding kinetic of antibody-antigen was characterized by the bio-layer interferometry (BLI). 100 nM of SLITRK6′ extracellular domain linked to his tag was immobilized on anti-his biosensor tips (Fortebio). The sensors were rinsed with the buffer (50 mM Tris-AcOH, pH 6 or 7.5, 0.05% v/v surfactant P20) for 10 min to remove the unbound molecules, then dipped in the antibody solutions at different concentrations for 180 seconds and interspersed by a rinsing step in the buffer solution for 300 seconds. Binding affinity was calculated using ForteBio Data Acquisition 6.3 software (ForteBio) and was derived by fitting the kinetic data to a 1:1 Langmuir binding model utilizing global fitting algorithms. The dissociation or association equilibrium constant KD was calculated from the binding rate constants as KD=koff/kₒₙ(where koff and kₒₙ represent the dissociation kinetic constant and the association kinetic constant, respectively).
Binder,Kd,koff,kon
B1,0.92 nM,0.000441 s⁻¹,480000 M⁻¹ s⁻¹
B2,0.212 nM,8.26e-05 s⁻¹,390000 M⁻¹ s⁻¹
B3,0.916 nM,0.00044 s⁻¹,480000 M⁻¹ s⁻¹

# Target: T2, cynomolgus monkey SLITRK6 extracellular …
# Experiment: as above
# Description: as §3
Binder,Kd,koff,kon
B1,1.27 nM,0.000444 s⁻¹,348000 M⁻¹ s⁻¹
B2,0.965 nM,0.000329 s⁻¹,341000 M⁻¹ s⁻¹
B3,1.36 nM,0.000513 s⁻¹,376000 M⁻¹ s⁻¹

# Target: T1, human SLITRK6 extracellular domain …
# Experiment: BLI binning on huSLITRK6-his; Ab1 = row antibody first, then Ab2 (competitor) = phA108
# Description: (§4) Epitope binning was characterized by the bio-layer interferometry (BLI). 100 nM of human SLITRK6′ extracellular domain linked to his tag was immobilized on anti-his biosensor tips (Fortebio). The sensors were rinsed with the buffer (50 mM Tris-AcOH, pH 6 or 7.5, 0.05% v/v surfactant P20) for 30 seconds to remove the unbound molecules, then dipped in the 100 nM of antibody 1 solutions for 180 seconds and interspersed by a rinsing step in the buffer solution for 300 seconds. After that, the sensors were dipped in the 100 nM of antibody 2 solutions. The epitope cluster was calculated using ForteBio Data Acquisition 6.3 software.
row,Binder,epitope binning signal
1,B1,0.304
2,B2,0.323
3,B3,0.299

# Target: T1, human SLITRK6 extracellular domain …
# Experiment: BLI binning on huSLITRK6-his; Ab1 = row antibody first, then Ab2 (competitor) = phA290
# Description: as §4
row,Binder,epitope binning signal
1,B1,0.299
2,B2,0.326
3,B3,0.302

# Target: T1, human SLITRK6 extracellular domain …
# Experiment: BLI binning on huSLITRK6-his; Ab1 = row antibody first, then Ab2 (competitor) = hu1H2-03
# Description: as §4
row,Binder,epitope binning signal
1,B1,0.0113
2,B2,0.0244
3,B3,0.0288

# Target: T1, human SLITRK6 extracellular domain …
# Experiment: BLI binning on huSLITRK6-his; Ab1 = row antibody first, then Ab2 (competitor) = hu1H2-13
# Description: as §4
row,Binder,epitope binning signal
1,B1,0.0122
2,B2,0.0268
3,B3,0.0284

# Target: T1, human SLITRK6 extracellular domain …
# Experiment: BLI binning on huSLITRK6-his; Ab1 = row antibody first, then Ab2 (competitor) = hu14G1-03
# Description: as §4
row,Binder,epitope binning signal
1,B1,0.0077
2,B2,0.0192
3,B3,0.0231

# Target: T1, human SLITRK6 extracellular domain …
# Experiment: BLI binning on huSLITRK6-his; Ab1 = row antibody first, then Ab2 (competitor) = Sirtratumab
# Description: as §4
row,Binder,epitope binning signal
1,B1,0.299
2,B2,0.293
3,B3,0.312
